Measured values: article PMC7954794, “Protein context shapes the specificity of SH3 domain-mediated interactions in vivo” (Nature Communications, 2021)

How the values were obtained:
Assay type in all cases: cell-based, Saccharomyces cerevisiae
[1] = test system: BOI1; assay: DHFR-PCA on solid medium, bait BOI1 (Fig. 1B); conditions: bait BOI1, label = prey; for medrep (log2 median colony size normalized to plate background, PCA score): 3-8 replicates
Source text: (§1) Supplement 41467_2021_21873_MOESM8_ESM.xlsx, sheet "Fig1B" | column: medsize; medrep; Ratio; Score

[2] = test system: BEM1-1; assay: DHFR-PCA on solid medium, bait BEM1-1 (Fig. 1B); conditions: bait BEM1-1, label = prey; for medrep (log2 median colony size normalized to plate background, PCA score): 2-8 replicates
Source text: as §1

[3] = test system: BOI2; assay: DHFR-PCA on solid medium, bait BOI2 (Fig. 1B); conditions: bait BOI2, label = prey; for medrep (log2 median colony size normalized to plate background, PCA score): 3-8 replicates
Source text: as §1

[4] = test system: BEM1-2; assay: DHFR-PCA on solid medium, bait BEM1-2 (Fig. 1B); conditions: bait BEM1-2, label = prey; for medrep (log2 median colony size normalized to plate background, PCA score): 2-8 replicates; for Ratio (SH3-deleted/WT medrep): only significant differences showed, PPIs completely lost have a ratio of 0.1 and the gained PPIs 2.5
Source text: as §1

[5] = test system: 575 putative partners (preys) of 22 WT SH3-containing proteins; assay: DHFR-PCA on solid medium, WT and SH3-deleted baits (Fig. 1B); set-up: key to Score: 0: SH3-independent; 1: SH3-dependent PPIs; 2: SH3-inhibited PPIs; conditions: for medrep (log2 median colony size normalized to plate background, PCA score): label = prey
Summary of the method: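 In S. cerevisiae, 22 SH3-containing baits fused genomically to DHFR F[1,2], either WT or with each SH3 replaced via CRISPR by a poly-Gly/Ser linker, screened against 575 DHFR F[3] preys plus 40 negative controls in 1536 arrays, preys duplicated at randomized positions.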

[6] = test system: BBC1; assay: DHFR-PCA on solid medium, bait BBC1 (Fig. 1B); conditions: bait BBC1, label = prey
Source text: as §1

[7] = test system: ABP1; assay: DHFR-PCA on solid medium, bait ABP1 (Fig. 1B); conditions: bait ABP1, label = prey; 2-4 replicates
Source text: as §1

[8] = only significant differences showed, PPIs completely lost have a ratio of 0.1 and the gained PPIs 2.5

B1: YDR379W (protein, UniProt Q06407 1-1009, looked up)
Rho-type GTPase-activating …: MSADPINDQSSLCVRCNKSIASSQVYELESKKWHDQCFTCYKCDKKLNADSDFLVLDIGTLICYDCSDKCTNCGDKIDDTAIILPSSNEAYCSNCFRCCRCSNRIKNLKYAKTKRGLCCMDCHEKLLRKKQLLLENQTKNSSKEDFPIKLPERSVKRPLSPTRINGKSDVSTNNTAISKNLVSSNEDQQLTPQVLVSQERDESSLNDNNDNDNSKDREETSSHARTVSIDDILNSTLEHDSNSIEEQSLVDNEDYINKMGEDVTYRLLKPQRANRDSIVVKDPRIPNSNSNANRFFSIYDKEETDKDDTDNKENEIIVNTPRNSTDKITSPLNSPMAVQMNEEVEPPHGLALTLSEATKENNKSSQGIQTSTSKSMNHVSPITRTDTVEMKTSTSSSTLRLSDNGSFSRPQTADNLLPHKKVAPSPNKKLSRSFSLKSKNFVHNLKSKTSEMLDPKHPHHSTSIQESDTHSGWGVSSTHTNIRKSKAKKNPVSRGQSDSTIYNTLPQHGNFTVPEFNHKKAQSSLGSISKKQNSNDTATNRRINGSFTSSSSGHHIAMFRTPPLESGPLFKRPSLSSESAHHRSSSLQTSRSTNALLEDDSTKVDATDESATSLEKDFYFTELTLRKLKLDVRELEGTKKKLLQDVENLRLAKERLLNDVDNLTREKDKQSASSRESLEQKENIATSITVKSPSSNSDRKGSISNASPKPRFWKIFSSAKDHQVGDLESQQRSPNSSSGGTTNIAQKEISSPKLIRVHDELPSPGKVPLSPSPKRLDYTPDGSHLYGSSLQARCAYEKSTVPIIIRCCIDRIEKDDIGLNMEGLYRKSGSQTLVEEIENEFAQNNSLHSDTLSPKLNALLNQDIHAVASVLKRYLRKLPDPVLSFSIYDALIDLVRNNQLIERLPLNNDKFLDSPQKVTIYEMVLKSLLEIFKILPVEHQEVLKVLAAHIGKVRRCSERNLMNLHNLSLVFAPSLIHDFDGEKDIVDMKERNYIVEFILGNYRDIFKQA
medrep (log2 median colony size normalized to plate background, PCA score) [1]: 1.407
Ratio (SH3-deleted/WT medrep) [1, 8]: 2.5
medrep (log2 median colony size normalized to plate background, PCA score) [2]: 2.957
medrep (log2 median colony size normalized to plate background, PCA score) [3]: 2.382
medrep (log2 median colony size normalized to plate background, PCA score) [4]: 2.957
Ratio (SH3-deleted/WT medrep) [4]: 0.1

B2: YKR048C (protein, UniProt P25293 1-417, looked up)
Nucleosome assembly protein: MSDPIRTKPKSSMQIDNAPTPHNTPASVLNPSYLKNGNPVRAQAQEQDDKIGTINEEDILANQPLLLQSIQDRLGSLVGQDSGYVGGLPKNVKEKLLSLKTLQSELFEVEKEFQVEMFELENKFLQKYKPIWEQRSRIISGQEQPKPEQIAKGQEIVESLNETELLVDEEEKAQNDSEEEQVKGIPSFWLTALENLPIVCDTITDRDAEVLEYLQDIGLEYLTDGRPGFKLLFRFDSSANPFFTNDILCKTYFYQKELGYSGDFIYDHAEGCEISWKDNAHNVTVDLEMRKQRNKTTKQVRTIEKITPIESFFNFFDPPKIQNEDQDEELEEDLEERLALDYSIGEQLKDKLIPRAVDWFTGAALEFEFEEDEEEADEDEDEEEDDDHGLEDDDGESAEEQDDFAGRPEQAPECKQS
medrep (log2 median colony size normalized to plate background, PCA score) ([5]; bait SLA1-2, DHFR-PCA, Replicates 4 (2 for YCR009C, YDR388W)): 1.303
Score ([5]; bait SLA1-2, label = prey): 1
Ratio (SH3-deleted/WT medrep) ([5]; bait SLA1-2, label = prey, only significant differences shown, PPIs completely lost have a ratio of 0.1, gained PPIs 2.5): 0.1
medrep (log2 median colony size normalized to plate background, PCA score) ([5]; bait SLA1-3, DHFR-PCA, Replicates 4 (2 for YCR009C, YDR388W, YIL033C)): 1.303
Score ([5]; bait SLA1-3, label = prey): 0
medrep (log2 median colony size normalized to plate background, PCA score) ([6]; 2-4 replicates): 1.806
Ratio (SH3-deleted/WT medrep) [6, 8]: 0.1
medrep (log2 median colony size normalized to plate background, PCA score) [3]: 1.303
Ratio (SH3-deleted/WT medrep) [3, 8]: 2.5
medrep (log2 median colony size normalized to plate background, PCA score) [7]: 3.939

B3: YBL085W (protein, UniProt P38041 1-980, looked up)
BEM1-interacting protein 1: MSLEGNTLGKGAKSFPLYIAVNQYSKRMEDELNMKPGDKIKVITDDGEYNDGWYYGRNLRTKEEGLYPAVFTKRIAIEKPENLHKSPTQESGNSGVKYGNLNDSASNIGKVSSHQQENRYTSLKSTMSDIDKALEELRSGSVEQEVSKSPTRVPEVSTPQLQDEQTLIQEKTRNEENTTHDSLFSSTADLNLSSESLKNISKSNISTKSLEPSSESVRQLDLKMAKSWSPEEVTDYFSLVGFDQSTCNKFKEHQVSGKILLELELEHLKELEINSFGIRFQIFKEIRNIKSAIDSSSNKLDADYSTFAFENQAAQLMPAATVNRDEIQQQISSKCNKLSSESSDRKSSSVTTELQRPSSVVVNPNFKLHDPAEQILDMTEVPNLFADKDIFESPGRAPKPPSYPSPVQPPQSPSFNNRYTNNNARFPPQTTYPPKNKNPTVYSNGLIPNSSTSSDNSTGKFKFPAMNGHDSNSRKTTLTSATIPSINTVNTDESLPAISNISSNATSHHPNRNSVVYNNHKRTESGSSFVDLFNRISMLSPVKSSFDEEETKQPSKASRAVFDSARRKSSYGHSRDASLSEMKKHRRNSSILSFFSSKSQSNPTSPTKQTFTIDPAKMTSHSRSQSNSYSHARSQSYSHSRKHSLVTSPLKTSLSPINSKSNIALAHSETPTSSNNKEAVSQPSEGKHKHKHKHKSKHKHKNSSSKDGSSEEKSKKKLFSSTKESFVGSKEFKRSPSELTQKSTKSILPRSNAKKQQTSAFTEGIRSITAKESMQTADCSGWMSKKGTGAMGTWKQRFFTLHGTRLSYFTNTNDEKERGLIDITAHRVLPASDDDRLISLYAASLGKGKYCFKLVPPQPGSKKGLTFTEPRVHYFAVENKSEMKAWLSAIIKATIDIDTSVPVISSYATPTIPLSKAQTLLEEARLQTQLRDAEEEEGRDQFGWDDTQNKRNSNYPIEQDQFETSDYLESSAFEYPGGRL
medrep (log2 median colony size normalized to plate background, PCA score) [1]: 1.7279
medrep (log2 median colony size normalized to plate background, PCA score) [2]: 1.5623
Ratio (SH3-deleted/WT medrep) [2, 8]: 0.5621
medrep (log2 median colony size normalized to plate background, PCA score) [3]: 3.465
medrep (log2 median colony size normalized to plate background, PCA score) [4]: 2.78
Ratio (SH3-deleted/WT medrep) [4]: 0.1

B4: YAL041W (protein, UniProt P11433 1-854, looked up)
Cell division control protein …: MAIQTRFASGTSLSDLKPKPSATSISIPMQNVMNKPVTEQDSLFHICANIRKRLEVLPQLKPFLQLAYQSSEVLSERQSLLLSQKQHQELLKSNGANRDSSDLAPTLRSSSISTATSLMSMEGISYTNSNPSATPNMEDTLLTFSMGILPITMDCDPVTQLSQLFQQGAPLCILFNSVKPQFKLPVIASDDLKVCKKSIYDFILGCKKHFAFNDEELFTISDVFANSTSQLVKVLEVVETLMNSSPTIFPSKSKTQQIMNAENQHRHQPQQSSKKHNEYVKIIKEFVATERKYVHDLEILDKYRQQLLDSNLITSEELYMLFPNLGDAIDFQRRFLISLEINALVEPSKQRIGALFMHSKHFFKLYEPWSIGQNAAIEFLSSTLHKMRVDESQRFIINNKLELQSFLYKPVQRLCRYPLLVKELLAESSDDNNTKELEAALDISKNIARSINENQRRTENHQVVKKLYGRVVNWKGYRISKFGELLYFDKVFISTTNSSSEPEREFEVYLFEKIIILFSEVVTKKSASSLILKKKSSTSASISASNITDNNGSPHHSYHKRHSNSSSSNNIHLSSSSAAAIIHSSTNSSDNNSNNSSSSSLFKLSANEPKLDLRGRIMIMNLNQIIPQNNRSLNITWESIKEQGNFLLKFKNEETRDNWSSCLQQLIHDLKNEQFKARHHSSTSTTSSTAKSSSMMSPTTTMNTPNHHNSRQTHDSMASFSSSHMKRVSDVLPKRRTTSSSFESEIKSISENFKNSIPESSILFRISYNNNSNNTSSSEIFTLLVEKVWNFDDLIMAINSKISNTHNNNISPITKIKYQDEDGDFVVLGSDEDWNVAKEMLAENNEKFLNIRLY
medrep (log2 median colony size normalized to plate background, PCA score) [1]: 2.673
medrep (log2 median colony size normalized to plate background, PCA score) [2]: 4.862
medrep (log2 median colony size normalized to plate background, PCA score) [3]: 3.947
medrep (log2 median colony size normalized to plate background, PCA score) [4]: 4.862
